Assay results taken from paper PMC11140114 (2024).

Target: recombinant human dynamin-related protein 1 (Drp1), isoform 1 (human, UniProt O00429 1-736)
Test: BLI

recombinant human dynamin-related protein 1 (Drp1), isoform 1, sequence (O00429 whole entry, canonical isoform): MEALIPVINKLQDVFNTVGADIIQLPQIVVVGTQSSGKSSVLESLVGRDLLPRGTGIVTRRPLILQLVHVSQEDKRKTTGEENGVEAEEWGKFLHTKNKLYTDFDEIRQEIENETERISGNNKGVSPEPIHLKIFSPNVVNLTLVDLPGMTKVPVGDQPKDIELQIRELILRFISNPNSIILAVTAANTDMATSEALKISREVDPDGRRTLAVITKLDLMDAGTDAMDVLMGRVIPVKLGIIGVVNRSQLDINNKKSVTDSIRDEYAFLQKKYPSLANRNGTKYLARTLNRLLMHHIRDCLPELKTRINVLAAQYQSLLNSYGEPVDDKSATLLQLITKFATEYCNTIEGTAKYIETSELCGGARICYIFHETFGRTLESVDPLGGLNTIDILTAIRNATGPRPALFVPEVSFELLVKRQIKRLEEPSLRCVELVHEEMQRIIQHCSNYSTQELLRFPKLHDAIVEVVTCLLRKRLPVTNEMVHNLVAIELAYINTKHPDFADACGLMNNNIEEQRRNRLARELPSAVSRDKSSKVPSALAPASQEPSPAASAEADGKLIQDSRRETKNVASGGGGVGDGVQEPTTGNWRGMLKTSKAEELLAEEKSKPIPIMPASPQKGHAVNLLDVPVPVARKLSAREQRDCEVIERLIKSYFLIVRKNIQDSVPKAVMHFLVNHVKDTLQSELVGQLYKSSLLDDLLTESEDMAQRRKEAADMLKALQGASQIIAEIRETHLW

| Binder | koff |
| --- | --- |
| Drp1-specific nanobody D63 (VHH, biotinylated for BLI (site not stated); covalently immobilised on NHS-activated sepharose via primary amino groups of accessible lysines for the nanotrap) VHH: QVQLVESGGDLVQPGGSLKLSCAVSGVSDSLSSFYLMAWHRQAPGKQREMIADIVSGKATYADSVKGRFTISRDNAENTAYLQMNSLKPEDTAVYYCNVLIQNRSTFQSYWGQGTQVTVSS | 0.000227 s⁻¹ |
| Drp1-specific nanobody D7 (VHH, biotinylated for BLI (site not stated); covalently immobilised on NHS-activated sepharose via primary amino groups of accessible lysines for the nanotrap) VHH: QVQLVESGGGLVQPGGSLRLSCVASGFDFSTYSMTWHRQVLGKERELVASITPGGSRTNVADSVKGRFTISRDNAKNMLYLQMDRLKPEDTGMYYCAQGGYYAEPDYWGKGTRVTVSS | 0.000117 s⁻¹ |
